# Columns and labels:
# [1] = biological target: RLuc8β2AR (β2-adrenergic receptor fused to RLuc8, BRET donor construct); experiment: BRET recruitment assay, RLuc8β2AR and GFP-arrestin-3 in co-transfected cells; the concentration varied is that of isoproterenol
# [2] = biological target: RLuc8β2AR (β2-adrenergic receptor fused to RLuc8, BRET donor construct); experiment: BRET recruitment assay in co-transfected cells; the concentration is that of isoproterenol
# [3] = biological target: RLuc8β2AR (β2-adrenergic receptor fused to RLuc8, BRET donor construct); experiment: BRET recruitment assay, RLuc8β2AR and GFP-arrestin-3 mutant in co-transfected cells; the concentration varied is that of isoproterenol
# [4] = biological target: RLuc8β2AR (β2-adrenergic receptor fused to RLuc8, BRET donor construct); experiment: BRET recruitment assay in co-transfected cells, isoproterenol-induced
# [5] = biological target: RLuc8β2AR (β2-adrenergic receptor fused to RLuc8, BRET donor construct); experiment: BRET recruitment assay, RLuc8β2AR and GFP-arrestin-3 mutant in co-transfected cells, isoproterenol-induced
# Sequence of GFP-arrestin-3 WT (human wild-type arrestin-3, SEQ ID NO: 1) (chain): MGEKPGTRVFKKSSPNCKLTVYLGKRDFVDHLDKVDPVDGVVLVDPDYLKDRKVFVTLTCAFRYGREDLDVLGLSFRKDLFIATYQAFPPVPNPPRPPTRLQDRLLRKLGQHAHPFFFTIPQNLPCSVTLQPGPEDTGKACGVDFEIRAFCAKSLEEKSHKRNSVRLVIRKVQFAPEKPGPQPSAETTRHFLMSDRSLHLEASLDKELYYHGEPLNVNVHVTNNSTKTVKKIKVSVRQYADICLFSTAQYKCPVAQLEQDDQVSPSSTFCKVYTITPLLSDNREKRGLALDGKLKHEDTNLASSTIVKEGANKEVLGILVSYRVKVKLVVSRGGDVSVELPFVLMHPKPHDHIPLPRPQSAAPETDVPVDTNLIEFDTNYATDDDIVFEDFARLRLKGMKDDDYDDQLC
Molecule,Potency (pEC50 of isoproterenol for recruitment of the arrestin to β2AR) [1],potency as concentration of isoproterenol for half of the total recruitment of the arrestin to β2AR [2],Potency (pEC50 of isoproterenol for recruitment of the arrestin to β2AR) [3],increase of efficacy in arrestin recruitment compared to wild-type arrestin-3 [4],"Efficacy (Emax) in %, normalized to WT [5]"
"GFP-arrestin-3 WT (human wild-type arrestin-3, SEQ ID NO: 1)",6.8 pEC50,158 nM,–,–,–
GFP-arrestin-3 triple mutant D (SEQ ID NO: 5): T299A + I386A + R393A (protein) MGEKPGTRVFKKSSPNCKLTVYLGKRDFVDHLDKVDPVDGVVLVDPDYLKDRKVFVTLTCAFRYGREDLDVLGLSFRKDLFIATYQAFPPVPNPPRPPTRLQDRLLRKLGQHAHPFFFTIPQNLPCSVTLQPGPEDTGKACGVDFEIRAFCAKSLEEKSHKRNSVRLVIRKVQFAPEKPGPQPSAETTRHFLMSDRSLHLEASLDKELYYHGEPLNVNVHVTNNSTKTVKKIKVSVRQYADICLFSTAQYKCPVAQLEQDDQVSPSSTFCKVYTITPLLSDNREKRGLALDGKLKHEDANLASSTIVKEGANKEVLGILVSYRVKVKLVVSRGGDVSVELPFVLMHPKPHDHIPLPRPQSAAPETDVPVDTNLIEFDTNYATDDDAVFEDFAALRLKGMKDDDYDDQLC,–,–,7.2 pEC50,–,89.2%

# More lines, now with the values ahead:
Potency (pEC50 of isoproterenol for recruitment of the arrestin to β2AR) [1],potency as concentration of isoproterenol for half of the total recruitment of the arrestin to β2AR [2],Potency (pEC50 of isoproterenol for recruitment of the arrestin to β2AR) [3],increase of efficacy in arrestin recruitment compared to wild-type arrestin-3 [4],"Efficacy (Emax) in %, normalized to WT [5]",Molecule
–,–,7.1 pEC50,30%,132%,GFP-arrestin-3 double mutant A (SEQ ID NO: 2): T299A + I386A
–,–,7.2 pEC50,–,109%,GFP-arrestin-3 triple mutant C (SEQ ID NO: 4): T299A + I386A + D298A (protein) MGEKPGTRVFKKSSPNCKLTVYLGKRDFVDHLDKVDPVDGVVLVDPDYLKDRKVFVTLTCAFRYGREDLDVLGLSFRKDLFIATYQAFPPVPNPPRPPTRLQDRLLRKLGQHAHPFFFTIPQNLPCSVTLQPGPEDTGKACGVDFEIRAFCAKSLEEKSHKRNSVRLVIRKVQFAPEKPGPQPSAETTRHFLMSDRSLHLEASLDKELYYHGEPLNVNVHVTNNSTKTVKKIKVSVRQYADICLFSTAQYKCPVAQLEQDDQVSPSSTFCKVYTITPLLSDNREKRGLALDGKLKHEAANLASSTIVKEGANKEVLGILVSYRVKVKLVVSRGGDVSVELPFVLMHPKPHDHIPLPRPQSAAPETDVPVDTNLIEFDTNYATDDDAVFEDFARLRLKGMKDDDYDDQLC
–,50.1 nM,7.3 pEC50,–,103%,GFP-arrestin-3 triple mutant B (SEQ ID NO: 3): T299A + I386A + R166A (protein) MGEKPGTRVFKKSSPNCKLTVYLGKRDFVDHLDKVDPVDGVVLVDPDYLKDRKVFVTLTCAFRYGREDLDVLGLSFRKDLFIATYQAFPPVPNPPRPPTRLQDRLLRKLGQHAHPFFFTIPQNLPCSVTLQPGPEDTGKACGVDFEIRAFCAKSLEEKSHKRNSVALVIRKVQFAPEKPGPQPSAETTRHFLMSDRSLHLEASLDKELYYHGEPLNVNVHVTNNSTKTVKKIKVSVRQYADICLFSTAQYKCPVAQLEQDDQVSPSSTFCKVYTITPLLSDNREKRGLALDGKLKHEDANLASSTIVKEGANKEVLGILVSYRVKVKLVVSRGGDVSVELPFVLMHPKPHDHIPLPRPQSAAPETDVPVDTNLIEFDTNYATDDDAVFEDFARLRLKGMKDDDYDDQLC

# — patent US20220106382A1
